Measured values as given in patent US20050119187A1 (BOARD OF SUPERVISORS OF LOUISIANA STATE UNIVERSITY AND …, published 2005).
Blank lines part the entries; values can stand above or below the molecule they belong to. *1 amine or outer side, *2 acyl side, *3 side chain or, on linkers, in order; H or OH if unused. Where no end group is shown, it is not given here. [ ]: non-standard residue; d: D form. Dbzg = C-alpha,alpha-dibenzylglycine, O=C(C(Cc1ccccc1)(Cc1ccccc1)N[*:1])[*:2]; Dibg = C-alpha,alpha-diisobutylglycine, CC(C)CC(CC(C)C)(N[*:1])C(=O)[*:2]; Dpg = CCCC(N)(CCC)C(=O)O

Assays:
[1] = biological target: amyloidogenic peptide Aβ10-35 (UniProt P05067); experiment: cell-based or functional assay
Sequence of amyloidogenic peptide Aβ10-35 (P05067 681-706): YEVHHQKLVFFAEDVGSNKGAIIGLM

[2] = biological target: the molecule itself; experiment: preliminary studies, self-aggregation (data not shown)

inhibition of aggregation (amyloid fibril formation) [1]: 5 µM
Molecule: AMY-1: Lys-Dibg-Val-Dbzg-Phe-Dpg-(Lys)6-NH2 (peptide)

B1: AMY-2: (Lys)7-Dibg-Val-Dbzg-Phe-Dpg-NH2 (peptide)
peptide: KKKKKKK[Dibg]V[Dbzg]F[Dpg]-NH2
modifications: N-terminus assumed
SMILES: CCCC(CCC)(NC(=O)[C@H](Cc1ccccc1)NC(=O)C(Cc1ccccc1)(Cc1ccccc1)NC(=O)[C@@H](NC(=O)C(CC(C)C)(CC(C)C)NC(=O)[C@H](CCCCN)NC(=O)[C@H](CCCCN)NC(=O)[C@H](CCCCN)NC(=O)[C@H](CCCCN)NC(=O)[C@H](CCCCN)NC(=O)[C@H](CCCCN)NC(=O)[C@@H](N)CCCCN)C(C)C)C(N)=O
notes: Synthetic beta-strand mimic based on Abeta16-21 (KLVFFA), with the oligolysine stretch at the N-terminus
binding result [2]: binds
